{"source": "patent US20190177408A1", "about": "(SUZHOU CONNECT BIOPHARMACEUTICALS, published 2019)", "binders": {"B1": {"name": "L1021H1016 (antibody, V domains shown)", "VH": "EVQLVQSGGGLVHPGGSLRLSCAGSGFTFSRNAMFWVRQAPGKGLEWVSGIGTGGATNYADSVKGRFTISRDNAKNSLYLQMNSLRAEDMAVYYCARGRYYFPWWGQGTLVTVSS", "VL": "EIVLTQSPGTLSLSPGERATLSCRASQSVSSSYLAWYQQKPGQAPRLLIFGASSRAPGIPDRFSGSGSGTDFTLTISRLEPEDFAVYYCQQYDHSAGWTFGQGTKVEIK", "notes": "human kappa"}, "B2": {"name": "L1021H1020 (antibody, V domains shown)", "VH": "B1 VH with N58S", "VL": "B1 VL", "notes": "human kappa"}, "B3": {"name": "L1021H1031 (antibody, V domains shown)", "VH": "B1 VH with Q6E, H13Q, G24A, N58S, M90T, P103D, W104Y", "VL": "B1 VL", "notes": "human kappa"}, "B4": {"name": "L1001H1000 (antibody, V domains shown)", "VH": "B1 VH with P103D, W104Y", "VL": "B1 VL with S31N, F50Y", "notes": "human kappa"}, "B5": {"name": "L1021H1000 (antibody, V domains shown)", "VH": "B1 VH with P103D, W104Y", "VL": "B1 VL", "notes": "human kappa"}, "B6": {"name": "L1021H1007 (antibody, V domains shown)", "VH": "B1 VH with N58S, P103D, W104Y", "VL": "B1 VL", "notes": "human kappa"}, "B7": {"name": "L1021H1027 (antibody, V domains shown)", "VH": "B1 VH with Q6E, G24A, N58S, M90T", "VL": "B1 VL", "notes": "human kappa"}, "B8": {"name": "L1021H1029 (antibody, V domains shown)", "VH": "B1 VH with Q6E, H13Q, G24A, N58S", "VL": "B1 VL", "notes": "human kappa"}, "B9": {"name": "L1024H1031 (antibody, V domains shown)", "VH": "B1 VH with Q6E, H13Q, G24A, N58S, M90T, P103D, W104Y", "VL": "B1 VL with S31N", "notes": "human kappa"}, "B10": {"name": "L1019H1000 (antibody, V domains shown)", "VH": "B1 VH with P103D, W104Y", "VL": "B1 VL with S31N, P57T", "notes": "human kappa"}, "B11": {"name": "L1022H1000 (antibody, V domains shown)", "VH": "B1 VH with P103D, W104Y", "VL": "B1 VL with S31N, F50Y, P57T", "notes": "human kappa"}, "B12": {"name": "L1023H1000 (antibody, V domains shown)", "VH": "B1 VH with P103D, W104Y", "VL": "B1 VL with F50Y"}, "B13": {"name": "L1024H1000 (antibody, V domains shown)", "VH": "B1 VH with P103D, W104Y", "VL": "B1 VL with S31N", "notes": "human kappa"}, "B14": {"name": "L1024H1007 (antibody, V domains shown)", "VH": "B1 VH with N58S, P103D, W104Y", "VL": "B1 VL with S31N", "notes": "human kappa"}, "B15": {"name": "L1013H1000 (antibody, V domains shown)", "VH": "B1 VH with P103D, W104Y", "VL": "B1 VL with S31N, P57T, A96P, G97P", "notes": "human kappa"}, "B16": {"name": "L1015H1000 (antibody, V domains shown)", "VH": "B1 VH with P103D, W104Y", "VL": "B1 VL with A96P, G97P", "notes": "human kappa"}, "B17": {"name": "L1016H1000 (antibody, V domains shown)", "VH": "B1 VH with P103D, W104Y", "VL": "B1 VL with P57T, A96P, G97P", "notes": "human kappa"}, "B18": {"name": "L1017H1000 (antibody, V domains shown)", "VH": "B1 VH with P103D, W104Y", "VL": "not shown", "notes": "human kappa"}, "B19": {"name": "L1020H1000 (antibody, V domains shown)", "VH": "B1 VH with P103D, W104Y", "VL": "B1 VL with F50Y, P57T", "notes": "human kappa"}, "B20": {"name": "L1020H1007 (antibody, V domains shown)", "VH": "B1 VH with N58S, P103D, W104Y", "VL": "B1 VL with F50Y, P57T", "notes": "human kappa"}, "B21": {"name": "L1020H1016 (antibody, V domains shown)", "VH": "B1 VH", "VL": "B1 VL with F50Y, P57T", "notes": "human kappa"}, "B22": {"name": "L1020H1020 (antibody, V domains shown)", "VH": "B1 VH with N58S", "VL": "B1 VL with F50Y, P57T", "notes": "human kappa"}, "B23": {"name": "L1020H1027 (antibody, V domains shown)", "VH": "B1 VH with Q6E, G24A, N58S, M90T", "VL": "B1 VL with F50Y, P57T", "notes": "human kappa"}, "B24": {"name": "L1020H1031 (antibody, V domains shown)", "VH": "B1 VH with Q6E, H13Q, G24A, N58S, M90T, P103D, W104Y", "VL": "B1 VL with F50Y, P57T", "notes": "human kappa"}}, "note": "Changes are numbered by the printed parent chain."}
{"molecular_target": "T1, IL-4Rα on TF-1 cells (human, UniProt P24394 26-825)", "T1 sequence (looked up)": "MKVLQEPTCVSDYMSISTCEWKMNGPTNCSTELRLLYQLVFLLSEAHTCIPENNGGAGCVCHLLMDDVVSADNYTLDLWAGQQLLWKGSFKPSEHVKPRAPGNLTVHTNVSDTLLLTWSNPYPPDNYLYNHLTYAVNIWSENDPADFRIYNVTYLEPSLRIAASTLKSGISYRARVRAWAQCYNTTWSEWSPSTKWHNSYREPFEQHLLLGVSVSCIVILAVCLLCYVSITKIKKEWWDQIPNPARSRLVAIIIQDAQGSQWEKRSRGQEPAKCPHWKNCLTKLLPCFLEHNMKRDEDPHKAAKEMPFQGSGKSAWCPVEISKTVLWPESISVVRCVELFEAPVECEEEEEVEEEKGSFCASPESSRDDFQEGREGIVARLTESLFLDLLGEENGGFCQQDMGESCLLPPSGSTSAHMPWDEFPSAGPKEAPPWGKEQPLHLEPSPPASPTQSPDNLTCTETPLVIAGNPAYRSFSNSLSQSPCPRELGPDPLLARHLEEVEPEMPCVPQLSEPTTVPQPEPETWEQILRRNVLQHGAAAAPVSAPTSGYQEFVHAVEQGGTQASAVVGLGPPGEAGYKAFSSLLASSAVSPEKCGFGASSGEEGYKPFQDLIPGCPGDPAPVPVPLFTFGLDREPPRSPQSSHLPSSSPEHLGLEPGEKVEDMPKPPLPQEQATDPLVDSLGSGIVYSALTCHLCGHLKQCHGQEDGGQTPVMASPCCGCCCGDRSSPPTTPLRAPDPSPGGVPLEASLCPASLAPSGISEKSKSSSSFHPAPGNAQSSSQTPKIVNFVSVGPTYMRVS", "assay": "cell-based or functional assay", "units": {"IC50 (ng/ml) (Inhibition on the proliferation of IL-4)": "ng/mL", "IC50 (ng/ml) (Inhibition on the proliferation of IL-13)": "ng/mL"}}
{"binder": "B1", "IC50 (ng/ml) (Inhibition on the proliferation of IL-4)": 28.5, "IC50 (ng/ml) (Inhibition on the proliferation of IL-13)": 69.7}
{"binder": "B2", "IC50 (ng/ml) (Inhibition on the proliferation of IL-4)": 15.4, "IC50 (ng/ml) (Inhibition on the proliferation of IL-13)": 28.6}
{"binder": "B3", "IC50 (ng/ml) (Inhibition on the proliferation of IL-4)": 34.3, "IC50 (ng/ml) (Inhibition on the proliferation of IL-13)": 76.5}
{"molecular_target": "T1, IL-4Rα on TF-1 cells", "assay": "cell-based or functional assay", "remark": "another data set of the same source"}
{"binder": "B4", "Inhibitory rate on pro-proliferative effect of IL-4": 0.98, "Inhibitory rate on pro-proliferative effect of IL-13": 0.85}
{"binder": "B5", "Inhibitory rate on pro-proliferative effect of IL-4": 0.95, "Inhibitory rate on pro-proliferative effect of IL-13": 0.78}
{"binder": "B6", "Inhibitory rate on pro-proliferative effect of IL-4": 1, "Inhibitory rate on pro-proliferative effect of IL-13": 0.86}
{"binder": "B1", "Inhibitory rate on pro-proliferative effect of IL-4": 1, "Inhibitory rate on pro-proliferative effect of IL-13": 0.94}
{"binder": "B2", "Inhibitory rate on pro-proliferative effect of IL-4": 0.91, "Inhibitory rate on pro-proliferative effect of IL-13": 0.75}
{"binder": "B7", "Inhibitory rate on pro-proliferative effect of IL-4": 1.02, "Inhibitory rate on pro-proliferative effect of IL-13": 0.94}
{"binder": "B8", "Inhibitory rate on pro-proliferative effect of IL-4": 1.02, "Inhibitory rate on pro-proliferative effect of IL-13": 0.92}
{"binder": "B9", "Inhibitory rate on pro-proliferative effect of IL-4": 1.01, "Inhibitory rate on pro-proliferative effect of IL-13": 0.94}
{"binder": "B3", "Inhibitory rate on pro-proliferative effect of IL-4": 1.01, "Inhibitory rate on pro-proliferative effect of IL-13": 0.93}
{"molecular_target": "T1, IL-4Rα on TF-1 cells", "assay": "cell-based or functional assay", "remark": "another data set of the same source"}
{"binder": "B10", "Inhibitory rate on pro-proliferative effect of IL-4": 0.72, "Inhibitory rate on pro-proliferative effect of IL-13": 0.49}
{"binder": "B11", "Inhibitory rate on pro-proliferative effect of IL-4": -0.05, "Inhibitory rate on pro-proliferative effect of IL-13": 0.02}
{"binder": "B12", "Inhibitory rate on pro-proliferative effect of IL-4": 0.26, "Inhibitory rate on pro-proliferative effect of IL-13": 0.07}
{"binder": "B13", "Inhibitory rate on pro-proliferative effect of IL-4": 0.44, "Inhibitory rate on pro-proliferative effect of IL-13": 0.39}
{"binder": "B14", "Inhibitory rate on pro-proliferative effect of IL-4": 0.86, "Inhibitory rate on pro-proliferative effect of IL-13": 0.7}
{"molecular_target": "T2, human soluble IL-4Rα (sIL-4Rα) (human, UniProt P24394 26-232)", "T2 construct": "Bought reagent (PEPRO TECH, Catalog Number 200-04R); also called shIL-4Rα; soluble hIL-4 Rα", "T2 sequence": "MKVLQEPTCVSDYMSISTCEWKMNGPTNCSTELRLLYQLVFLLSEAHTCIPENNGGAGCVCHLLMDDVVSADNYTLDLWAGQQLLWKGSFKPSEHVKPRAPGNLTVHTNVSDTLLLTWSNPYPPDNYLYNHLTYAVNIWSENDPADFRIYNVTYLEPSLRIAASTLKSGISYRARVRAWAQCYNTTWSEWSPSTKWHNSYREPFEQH", "assay": "ELISA, coated sIL-4Rα, culture supernatant", "description": "100 μl of 100 μg/ml sIL-4Rα solution was added to 9.90 ml of PBS, mixed up and down, and then an antigen coating buffer of 1.0 μg/ml was obtained. The prepared antigen coating buffer was added to a 96-well ELISA plate (Corning) with a volume of 100 μl per well. The 96-well ELISA plate was incubated overnight in a refrigerator at 4° C. On the next day; the solution therein was discarded; and PBS containing 2% BSA was added to the 96-well ELISA plate row by row with a volume of 300 μl per well. The 96-well ELISA plate was incubated for 2 hours in a refrigerator at 4° C., Then the PBS containing 2% BSA was discarded and the plate was washed 3 times with PBST. Diluted antibodies to be tested were sequentially added to the corresponding wells, while the normal cell culture supernatants, as negative control samples, were added too. Three duplicate wells were made for each sample with a volume of 100 μl per well. The ELISA plate was wrapped with preservative film (or covered) and incubated for 1 h at […] in a constant temperature incubator. Subsequently, the 96-well ELISA plate was taken out, and the solution therein was discarded. After washing with PBST for 3 times, TMB solution (Solarbio, Catalog Number: PR1200) was added to the 96-well ELISA plate row by row with a volume of 100 μl per well. The 96-well ELISA plate was placed at room temperature for 5 minutes, and 2 M H2SO4 solution was added in immediately to terminate the reaction. The 96-well ELISA plate was placed in flexstation 3 (Molecular Devices), the values of OD450 were read, and the data were collected, calculated and analyzed. Results were expressed relative to the affinity of control antibody 1."}
{"binder": "B4", "OD 450/OD450Control antibody 1": 1.56}
{"binder": "B15", "OD 450/OD450Control antibody 1": 0.24}
{"binder": "B16", "OD 450/OD450Control antibody 1": 0.67}
{"binder": "B17", "OD 450/OD450Control antibody 1": 0.27}
{"binder": "B18", "OD 450/OD450Control antibody 1": 0.49}
{"binder": "B10", "OD 450/OD450Control antibody 1": 1.79}
{"binder": "B19", "OD 450/OD450Control antibody 1": 2.27}
{"binder": "B20", "OD 450/OD450Control antibody 1": 0.4}
{"binder": "B21", "OD 450/OD450Control antibody 1": 0.8}
{"binder": "B22", "OD 450/OD450Control antibody 1": 0.26}
{"binder": "B23", "OD 450/OD450Control antibody 1": 0.4}
{"binder": "B24", "OD 450/OD450Control antibody 1": 1.12}
{"binder": "B5", "OD 450/OD450Control antibody 1": 2.42}
{"binder": "B6", "OD 450/OD450Control antibody 1": 0.44}
{"binder": "B1", "OD 450/OD450Control antibody 1": 0.63}
{"binder": "B2", "OD 450/OD450Control antibody 1": 0.24}
{"binder": "B7", "OD 450/OD450Control antibody 1": 0.29}
{"binder": "B8", "OD 450/OD450Control antibody 1": 1}
{"binder": "B11", "OD 450/OD450Control antibody 1": 0.16}
{"binder": "B13", "OD 450/OD450Control antibody 1": 0.69}
{"binder": "B14", "OD 450/OD450Control antibody 1": 0.23}
{"binder": "B9", "OD 450/OD450Control antibody 1": 0.9}
{"binder": "B3", "OD 450/OD450Control antibody 1": 0.9}
